# Values of other authors, collected in PMC5963937.
# Target: LPL (Homo sapiens) (UniProt P06858)
# UniProt P06858, sequence (P06858 28-475): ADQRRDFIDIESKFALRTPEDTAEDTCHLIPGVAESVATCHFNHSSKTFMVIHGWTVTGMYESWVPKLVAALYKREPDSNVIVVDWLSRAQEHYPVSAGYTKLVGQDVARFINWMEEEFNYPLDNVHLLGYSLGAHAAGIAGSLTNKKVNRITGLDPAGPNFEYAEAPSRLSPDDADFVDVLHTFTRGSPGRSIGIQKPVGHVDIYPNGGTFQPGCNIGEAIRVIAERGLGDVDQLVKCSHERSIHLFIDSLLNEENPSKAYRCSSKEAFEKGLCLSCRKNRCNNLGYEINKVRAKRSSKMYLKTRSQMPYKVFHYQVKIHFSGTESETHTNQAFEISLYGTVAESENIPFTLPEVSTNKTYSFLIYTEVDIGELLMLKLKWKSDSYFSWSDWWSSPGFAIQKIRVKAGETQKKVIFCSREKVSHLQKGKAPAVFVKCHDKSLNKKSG
substance,measurement,value
GPIHBP1 (from UniProt Q8IV16),Kd,25 nM
